In paper PMC7736850, “Hemistepsin A suppresses colorectal cancer growth through inhibiting pyruvate dehydrogenase kinase activity” (Scientific Reports, 2020) one finds Kd data, which are given here for three compounds.

For assay [1], the target named is T1, pyruvate dehydrogenase kinase (PDK) 1 (Homo sapiens, UniProt Q15118).
T1 construct: gene PDK1
Briefly: isothermal titration calorimetry (ITC). It counts as binding. In general terms: In ITC the heat of successive injections is recorded.

In assay [2] the target is Pyruvate dehydrogenase kinase 1 (PDK1) protein (UniProt Q15118). The assay can be described thus: ITC; PDK1 protein with the lipoamide-binding domains of PDH-E2 (L1, L2), without HsA; conditions not told in the main text.
Pyruvate dehydrogenase kinase 1 (PDK1) protein, sequence (Q15118 29-436): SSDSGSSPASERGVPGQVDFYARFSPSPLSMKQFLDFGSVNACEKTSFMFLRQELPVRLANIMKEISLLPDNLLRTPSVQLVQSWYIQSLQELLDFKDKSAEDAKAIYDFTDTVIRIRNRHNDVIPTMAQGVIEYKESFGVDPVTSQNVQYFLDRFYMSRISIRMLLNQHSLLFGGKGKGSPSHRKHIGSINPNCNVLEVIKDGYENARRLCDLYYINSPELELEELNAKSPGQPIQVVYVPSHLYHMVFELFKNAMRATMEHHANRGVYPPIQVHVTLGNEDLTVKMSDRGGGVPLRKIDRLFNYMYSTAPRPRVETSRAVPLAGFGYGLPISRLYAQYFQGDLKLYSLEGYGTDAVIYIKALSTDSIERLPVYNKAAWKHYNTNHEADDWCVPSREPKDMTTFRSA
Assay [3] has the same target. The assay can be described thus: ITC; PDK1 protein with the lipoamide-binding domains of PDH-E2 (L1, L2), in the presence of hemistepsin A (HsA); conditions not told in the main text.

T1 sequence (Q15118 29-436): as above

Regarding `C=C(CO)C(=O)OC1C2C(=C)C(=O)OC2CC(=C)C2CC(O)C(=C)C21` (centres unmarked) [HsA, Hemistepsin A], the equilibrium dissociation constant (Kd) in assay [1] was found to be 22 µM.
Regarding “L1 lipoamide-binding domain of the PDH complex E2 subunit (PDH-E2) (domain or fragment)”, the Kd in assay [2] is 41.1 µM; in assay [3], 43.1 µM.
For the compound “L2 lipoamide-binding domain of the PDH complex E2 subunit (PDH-E2) (domain or fragment)”, the Kd in assay [2] amounted to 30 µM; in assay [3] it was 41 µM.

Broadly, the Kd is the free concentration of one partner at which half of the binding sites on the other are occupied at equilibrium, for simple one-to-one binding.
